This note sets out measurements from US20240051999A1 (JOHN INNES CENTRE, published 2024).

For assay [1], the target named is T1, vWA (von Willebrand factor type A) domain of Arabidopsis thaliana RPN10 (Arabidopsis thaliana, UniProt P55034 1-193).
T1 construct: In Y2H it was a fusion to a GAL4 domain; also called AtvWA; AtRPN10 vWA domain
T1 sequence: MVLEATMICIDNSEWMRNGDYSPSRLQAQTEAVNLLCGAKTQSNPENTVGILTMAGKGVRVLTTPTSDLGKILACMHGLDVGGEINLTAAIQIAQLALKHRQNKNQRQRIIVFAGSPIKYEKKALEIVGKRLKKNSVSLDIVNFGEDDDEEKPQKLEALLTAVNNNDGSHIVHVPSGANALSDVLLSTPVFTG
The assay can be described thus: His-tag pull-down (iMAC), His-sumo-tagged vWA as bait.

Assay [2] concerns the target T2, UIM domain (C-terminal half with ubiquitin-interacting motifs) of Arabidopsis thaliana RPN10 (Arabidopsis thaliana, UniProt P55034 194-386).
T2 construct: domain: UIM domain
T2 sequence: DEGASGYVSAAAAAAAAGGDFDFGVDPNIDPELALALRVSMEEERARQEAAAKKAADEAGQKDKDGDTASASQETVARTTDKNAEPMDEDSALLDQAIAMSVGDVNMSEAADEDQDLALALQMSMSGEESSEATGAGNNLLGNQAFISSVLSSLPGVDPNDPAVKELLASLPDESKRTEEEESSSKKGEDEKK
Briefly: yeast two-hybrid.

B1: ZnF (zinc-finger) domain of Arabidopsis thaliana SPL5 (other)
chain: SRLCQVDRCTVNLTEAKQYYRRHRVCEVHAKASAATVAGVRQRFCQQCSRFHELPEFDEAKRSCRRRLAGHNERRRKI
notes: domain: ZnF domain; Recombinant protein from E. coli; also called ZnF domain of AtSPL5
As for B1, in assay [1], the binding result was “no binding”.

B2: SAP05 (effector protein from AY-WB phytoplasma) (other)
chain: APNEEFVGDMRIVNVNLSNIDILKKHETFKKYFDFTLTGPRYNGNIAEFAMIWKIKNPPLNLLGVFFDDGTRDDEDDKYILEELKQIGNGAKNMYIFWQYEQK
notes: also called SAP05_AYWB; His-tagged SAP05
For the molecule B2, in assay [2], the binding result is listed as “no binding”.
